Primed or numbered codes have the meaning given here. No end group written: not given here. FITC′ = not defined here
Key:
HeLa cells = assay: Kinetics on the transduction of CTP-β-gal and PTD-β-gal; type: cell-based; settings: trypsin prior to cell harvest
Method: The Membrane permeability of CTP-β-gal and PTD-β-gal was analyzed in kinetics. Cells were treated with the fusion protein and lysed with 0.9% Triton X-100 solution without trypsinization, after which the overall β-gal activity in the cells was measured. Furthermore, in order to measure the authentic trnsduction amount of β-gal imported into the cells, the cells were trypsinized following the treatment with fusion protein, and then examined the amount of the β-gal activity imported into the cells in the same conditions (see FIG. 8).

[1] = set-up: species or system BALB/c mice; settings: mouse, in vivo, iv
Method: To elucidate whether the CTP of this invention can deliver its fusion partner into cells in vivo as well as into cells in vitro, BALB/c mice were injected i.p. with 25 μg/(g of mouse) of CTP-β-gal, PTD-β-gal, MTS-β-gal fusion protein or β-gal protein, or injected i.v. via tail vein with 100 μg/mouse of fusion proteins. Four hr after injection, mice were euthanized and skinned, and their peritoneal cavities were dissected, followed by washing three times with a PBS buffer. After fixation with a fixing solution, whole body was stained in X-gal solution. Each organ was extracted and the β-gal activity was measured.

[2] = mouse, in vivo
Method: CTP-β-gal was administered via the peritoneal cavity or a tail vein of mice. Four hr later, organs such as thymus, heart, spleen, liver and kidney were extracted. The organs rapidly frozen were sectioned with a microtome, and then incubated overnight in a X-gal reaction solution, followed by observation of the β-gal activity under a microscope.

[3] = biological target: T1, XIAP (X-linked inhibitor of apoptosis protein) (Homo sapiens, UniProt P98170); assay: Inhibition of XIAP function: UV-induced apoptosis of XIAP-transfected Jurkat E6 cells (Annexin V FACS); type: cell-based; settings: 0.1, 0.5, 1 μg/ml peptide, 2 hr
T1 construct: expressed in transfected cells; host or cells: Jurkat E6
T1 sequence (P98170 whole entry, species assumed): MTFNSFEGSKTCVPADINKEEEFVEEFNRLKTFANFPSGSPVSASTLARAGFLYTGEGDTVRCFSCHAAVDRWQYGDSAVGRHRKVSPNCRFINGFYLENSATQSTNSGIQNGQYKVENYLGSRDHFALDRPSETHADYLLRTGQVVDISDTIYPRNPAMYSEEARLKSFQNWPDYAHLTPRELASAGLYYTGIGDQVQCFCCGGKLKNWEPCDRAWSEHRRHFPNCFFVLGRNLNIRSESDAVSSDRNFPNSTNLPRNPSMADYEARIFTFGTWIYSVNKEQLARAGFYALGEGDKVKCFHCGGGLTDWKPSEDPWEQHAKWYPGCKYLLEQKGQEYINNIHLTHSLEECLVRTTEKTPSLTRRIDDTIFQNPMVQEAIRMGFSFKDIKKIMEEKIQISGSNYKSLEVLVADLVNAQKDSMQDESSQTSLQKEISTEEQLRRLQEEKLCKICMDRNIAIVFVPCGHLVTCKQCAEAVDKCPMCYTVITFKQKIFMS
Method: Since the first amino acid, alanine, of the 7-amino acid sequence at the N-terminal of the Smac/DIABLO peptide is pivotal in binding to XIAP, as reported previously, CTP was linked to C-terminal of the Smac/DIABLO peptide to prepare Smac/Diablo-CTP-FITC peptide. For detection, FITC was conjugated at the C-terminal of the peptide: Smac/Diablo-CTP-FITC ([…]-FITC).
Jurkat E6 (2×10^5 cell/ml) were transfected with 10 μg of pcDNA3-XIAP using a transfection reagent, GenePORTER 2 (1 μl/μg DNA) and cultured for 2 days at 37° C. in RPMI containing 10% FBS. Two days later, the cells were washed twice with 1× PBS, and treated with Smac/Diablo-CTP-FITC peptide (synthesized at HHMI, KECK BIOTECHNOLOGY RESOURCE CENTER) for 2 hr at 37° C. in a serum free media at concentrations of 0.1 μg/ml, 0.5 μg/ml and 1 μg/ml. Then, to measure the extent of apoptosis, the cells were exposed to UV light (40 W) for 50 sec in a culture hood. After 6 hr, the cells were washed twice with 1 × PBS and the apoptozed cells were measured by FACS using Annexin V-FITC apoptosis detection kit (BD Biosciences Pharmingen. Cot: 556547).

| Substance | transduction potential / import into cells over time (HeLa cells) | β-gal activity in auxiliary, inguinal and popliteal lymph nodes [1] | β-gal activity in organ sections (thymus, heart, spleen, liver, kidney) [2] | apoptosis of cells transfected with 10 μg pcDNA-XIAP DNA [3] |
| --- | --- | --- | --- | --- |
| β-gal: only β-galactosidase protein, negative control | not to be imported into cells with the lapse of time | not observed | little or no β-gal activity in the inner side | – |
| AVPIAQKSEGGRRARRRRRRK-FITC (AVPIAQKSEGGRRARRRRRRK-{FITC′}) [Smac/Diablo-CTP-FITC, N-terminal Smac/DIABLO peptide linked to CTP, FITC at the C-terminal] | – | – | – | greatly increased |

Reference: patent US7101844B2, “Cytoplasmic transduction peptides and uses thereof” (Creagene, Inc., priority 2002, dated 2006)
